Experimental data taken from article PMC6629437 (Cell, 2019).
Changes are numbered by the printed parent chain. In names and notes the source's numbering stands.

T1: HA head domain of H1 A/Solomon Islands/3/2006 (Influenza A virus A/Solomon …, strain)
T1 chain: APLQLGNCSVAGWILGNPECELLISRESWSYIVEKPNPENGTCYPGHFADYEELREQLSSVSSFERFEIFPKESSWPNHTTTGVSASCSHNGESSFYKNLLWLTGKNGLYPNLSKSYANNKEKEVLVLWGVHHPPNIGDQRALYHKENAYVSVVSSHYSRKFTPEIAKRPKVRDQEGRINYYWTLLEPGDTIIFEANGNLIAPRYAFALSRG

B1: rFluA-20 Fab (Fab, V domains shown)
VH: QVQLEESGPGLVKPSETLSLTCSVSGVSVTSDIYYWTWIRQPPGKGLEWIGYIFYNGDTNYNPSLKSRVTMSIDTSKNEFSLRLTSVTAADTAVYFCARGTEDLGYCSSGSCPNHWGQGTLVTVSS
VL: DIVMTQSPSSLSASIGDRVTITCRPSQNIRSFLNWFQHKPGKAPKLLIYAASNLQSGVPSRFSGSGSGTEFTLTIRSLQPEDFATYYCQQSYNTPPTFGQGTKVEIK
B2: rFluA-20 IgG Q55A (L) (antibody, V domains shown)
VH: B1 VH
VL: B1 VL with Q55A
B3: rFluA-20 IgG Y49A (L) (antibody, V domains shown)
VH: B1 VH
VL: B1 VL with Y49A
B4: rFluA-20 IgG D98A (H) (antibody, V domains shown)
VH: B1 VH with D103A
VL: B1 VL

How the values were obtained:
[1] = molecular target: T1, HA head domain of H1 A/Solomon …; assay: BLI
H1 HA of A/Texas/36/1991 = H1 HA of A/Texas/36/1991 (Influenza A virus A/Texas/36/1991 (H1N1), UniProt Q6WG02, strain); assay: ELISA

| Binder | binding result [1] | binding result (H1 HA of A/Texas/36/1991) |
| --- | --- | --- |
| B1 | binds |  |
| B2 |  | binds |
| B3 |  | no binding (tested: 10 μg/mL) |
| B4 |  | no binding (tested: 10 μg/mL) |
